Measurements: paper PMC5868747
Read-outs that look alike come from different tables or passages of the source.

Columns and labels:
[1] = target: T1, Myc-RTA (IVT) (Kaposi's sarcoma-associated herpesvirus …, UniProt F5HCV3 1-691); test: EMSA
[2] = target: T1, Myc-RTA (IVT); test: EMSA; remark: listed apart in the source

T1 sequence (F5HCV3 whole entry): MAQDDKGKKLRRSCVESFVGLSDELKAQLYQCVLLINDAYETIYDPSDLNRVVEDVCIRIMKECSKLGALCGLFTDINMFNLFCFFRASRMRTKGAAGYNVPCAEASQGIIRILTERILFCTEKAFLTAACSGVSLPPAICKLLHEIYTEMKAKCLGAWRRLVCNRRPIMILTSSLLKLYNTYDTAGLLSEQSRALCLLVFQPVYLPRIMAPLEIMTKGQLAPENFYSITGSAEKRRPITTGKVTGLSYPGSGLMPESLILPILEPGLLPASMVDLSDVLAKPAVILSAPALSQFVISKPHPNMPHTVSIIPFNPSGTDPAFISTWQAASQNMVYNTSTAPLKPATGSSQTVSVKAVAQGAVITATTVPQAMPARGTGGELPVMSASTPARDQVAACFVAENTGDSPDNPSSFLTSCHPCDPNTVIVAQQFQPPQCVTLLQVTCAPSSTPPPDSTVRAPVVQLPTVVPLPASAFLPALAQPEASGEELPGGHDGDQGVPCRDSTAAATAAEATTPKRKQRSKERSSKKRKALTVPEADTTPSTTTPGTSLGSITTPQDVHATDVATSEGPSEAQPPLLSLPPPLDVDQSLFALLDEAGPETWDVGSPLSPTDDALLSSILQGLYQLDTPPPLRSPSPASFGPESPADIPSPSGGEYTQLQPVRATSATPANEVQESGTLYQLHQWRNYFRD

Binder | binding result [1] | binding result [2]
59pA (dsDNA) DNA 1: ACACCACGTGTGTGACTGACGATTTGTGAAGGTTAACCTGTCCATGTCGC DNA 2: GCGACATGGACAGGTTAACCTTCACAAATCGTCAGTCACACACGTGGTGT | binds | 
59pF (minimal RRE) (dsDNA) DNA 1: CGATTTGTGAAGGTTAACCTGTCCATG DNA 2: CATGGACAGGTTAACCTTCACAAATCG |  | binds
